Common to all, as to assay: filter binding
Data set [1] has as its target T1, POT1 (Homo sapiens, UniProt Q9NUX5 1-634).
T1 sequence: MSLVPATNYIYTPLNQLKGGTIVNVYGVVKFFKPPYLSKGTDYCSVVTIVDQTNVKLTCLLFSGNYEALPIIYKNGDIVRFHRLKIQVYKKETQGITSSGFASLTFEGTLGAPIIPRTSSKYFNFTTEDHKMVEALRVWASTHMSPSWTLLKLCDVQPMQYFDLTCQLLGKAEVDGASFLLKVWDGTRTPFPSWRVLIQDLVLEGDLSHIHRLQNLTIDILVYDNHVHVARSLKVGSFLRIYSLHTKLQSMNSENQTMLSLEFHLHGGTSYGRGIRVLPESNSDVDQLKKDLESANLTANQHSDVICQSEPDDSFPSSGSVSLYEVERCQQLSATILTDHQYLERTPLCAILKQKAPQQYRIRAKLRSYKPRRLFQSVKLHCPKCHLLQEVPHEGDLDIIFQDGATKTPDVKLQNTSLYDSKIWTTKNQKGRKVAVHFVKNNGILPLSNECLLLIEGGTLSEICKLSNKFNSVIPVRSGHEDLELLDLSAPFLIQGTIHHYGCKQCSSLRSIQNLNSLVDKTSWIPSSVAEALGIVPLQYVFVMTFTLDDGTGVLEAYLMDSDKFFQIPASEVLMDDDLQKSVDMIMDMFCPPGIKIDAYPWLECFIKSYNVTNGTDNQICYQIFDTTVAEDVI

Data set [2] addresses POT1;TPP1-L23 mutant (Homo sapiens;Homo sapiens, UniProt Q9NUX5;Q96AP0 1-634;3-248, |D62A;G63A;T64A;H65A).
In data set [3] the target is POT1;TPP1 (WT) (Homo sapiens;Homo sapiens, UniProt Q9NUX5;Q96AP0 1-634;3-248, |).
Data set [4] deals with POT1;TPP1-L45 mutant (Homo sapiens;Homo sapiens, UniProt Q9NUX5;Q96AP0 1-634;3-105+=AAAAA+116-248, |internal_change).

This note sets out measurements from PMC5137443.

Usually Kd stands for the free concentration of one partner at which half of the binding sites on the other are occupied at equilibrium, for simple one-to-one binding. Low readings indicate a tighter complex, high ones a looser complex.

GGTTAGGGTTAG (ssDNA) [hT12wt, d(GGTTAG)2]: the Kd came out at 0.0382 ± 0.0048 µM in data set [1], 0.0273 ± 0.0042 µM in data set [2], 0.0038 ± 0.0005 µM in data set [3] and 0.0137 ± 0.0055 µM in data set [4].
